Source: patent US20070202045A1 (published 2007)
Where two headings read alike, the source gives them in different places. Bridges are numbered along the chain shown (N, C = ends). Where no end group is shown, it is not given here.

B1: SA33 (peptide)
peptide: Ac-RLIEDICLPRWGCL-NH2
modifications: disulfide 7-13 (inferred)
notes: synthetic
B2: SA22 (peptide)
peptide: Ac-RLIEDICLPRWGCLWED-NH2
modifications: disulfide 7-13 (inferred)
notes: synthetic
B3: SA30 (peptide)
peptide: Ac-IEDICLPRWGCLWE-NH2
modifications: disulfide 5-11 (inferred)
notes: synthetic
B4: SA23 (peptide)
peptide: Ac-LIEDICLPRWGCLWED-NH2
modifications: disulfide 6-12 (inferred)
notes: synthetic
B5: SA09 (peptide)
peptide: Ac-EDICLPRWGCLWEDD-NH2
modifications: disulfide 4-10 (inferred)
notes: synthetic; disulfide oxidised
B6: SA34 (peptide)
peptide: Ac-DICLPRWGCL-NH2
modifications: disulfide 3-9 (inferred)
notes: synthetic
B7: SA31 (peptide)
peptide: Ac-RLIEDICLPRWGCLW-NH2
modifications: disulfide 7-13 (inferred)
notes: synthetic
B8: RC (peptide)
peptide: DLCLRDWGCLW
modifications: not fully specified (C-terminus); cysteine pairing not given here
B9: SA27 (peptide)
peptide: Ac-ICLPRWGCLWED-NH2
modifications: disulfide 2-8 (inferred)
notes: synthetic
B10: SA08 (peptide)
peptide: Ac-QGLIGDICLPRWGCLWGDSVK-NH2
modifications: disulfide 8-14 (inferred)
notes: synthetic; disulfide oxidised
B11: SA05 (peptide)
peptide: MEDICLPRWGCLWED-NH2
modifications: disulfide 5-11 (inferred)
notes: synthetic; disulfide oxidised
B12: SA24 (peptide)
peptide: Ac-IEDICLPRWGCLWED-NH2
modifications: disulfide 5-11 (inferred)
notes: synthetic
B13: SA32 (peptide)
peptide: Ac-EDICLPRWGCLW-NH2
modifications: disulfide 4-10 (inferred)
notes: synthetic
B14: SA04 (peptide)
peptide: DICLPRWGCLW-NH2
modifications: disulfide 3-9 (inferred)
notes: synthetic; disulfide oxidised
B15: SA19 (peptide)
peptide: DICLPRWGCL-NH2
modifications: disulfide 3-9 (inferred)
notes: synthetic
B16: SA07 (peptide)
peptide: QGLIGDICLPRWGCLWGDSV-NH2
modifications: disulfide 8-14 (inferred)
notes: synthetic; disulfide oxidised; printed ...GDSV here
B17: SA25 (peptide)
peptide: Ac-EDICLPRWGCLWED-NH2
modifications: disulfide 4-10 (inferred)
notes: synthetic
B18: SA18 (peptide)
peptide: ICLPRWGCLW-NH2
modifications: disulfide 2-8 (inferred)
notes: synthetic
B19: SA11 (peptide)
peptide: Ac-MEDICLPRWGCLWEDD-NH2
modifications: disulfide 5-11 (inferred)
notes: synthetic; disulfide oxidised
B20: SA15 (peptide)
peptide: GEWWEDICLPRWGCLWEEED-NH2
modifications: disulfide 8-14 (inferred)
notes: synthetic
B21: SA10 (peptide)
peptide: Ac-RLMEDICLPRWGCLWEDD-NH2
modifications: disulfide 7-13 (inferred)
notes: synthetic; disulfide oxidised
B22: SA21 (peptide)
peptide: Ac-RLIEDICLPRWGCLWEDD-NH2
modifications: disulfide 7-13 (inferred)
notes: synthetic; disulfide oxidised
B23: SA13 (peptide)
peptide: Ac-RLMEDICLARWGCLWEDD-NH2
modifications: disulfide 7-13 (inferred)
notes: synthetic; disulfide oxidised
B24: SA26 (peptide)
peptide: Ac-DICLPRWGCLWED-NH2
modifications: disulfide 3-9 (inferred)
notes: synthetic
B25: SA12 (peptide)
peptide: Ac-MEDICLPRWGCLWED-NH2
modifications: disulfide 5-11 (inferred)
notes: synthetic; disulfide oxidised
B26: SA29 (peptide)
peptide: Ac-RLIEDICLPRWGCLWE-NH2
modifications: disulfide 7-13 (inferred)
notes: synthetic
B27: SA20 (peptide)
peptide: Ac-QRLIEDICLPRWGCLWEDDF-NH2
modifications: disulfide 8-14 (inferred)
notes: synthetic
B28: SA06 (peptide)
peptide: QRLMEDICLPRWGCLWEDDF-NH2
modifications: disulfide 8-14
notes: synthetic; disulfide oxidised

Key:
[1] = target: T1, rabbit albumin (rabbit, UniProt P49065 25-608); assay: SA08b competition ELISA
T1 construct: bought (Sigma); also called rabbit SA; BuSA
T1 sequence (P49065 25-608 limits assumed): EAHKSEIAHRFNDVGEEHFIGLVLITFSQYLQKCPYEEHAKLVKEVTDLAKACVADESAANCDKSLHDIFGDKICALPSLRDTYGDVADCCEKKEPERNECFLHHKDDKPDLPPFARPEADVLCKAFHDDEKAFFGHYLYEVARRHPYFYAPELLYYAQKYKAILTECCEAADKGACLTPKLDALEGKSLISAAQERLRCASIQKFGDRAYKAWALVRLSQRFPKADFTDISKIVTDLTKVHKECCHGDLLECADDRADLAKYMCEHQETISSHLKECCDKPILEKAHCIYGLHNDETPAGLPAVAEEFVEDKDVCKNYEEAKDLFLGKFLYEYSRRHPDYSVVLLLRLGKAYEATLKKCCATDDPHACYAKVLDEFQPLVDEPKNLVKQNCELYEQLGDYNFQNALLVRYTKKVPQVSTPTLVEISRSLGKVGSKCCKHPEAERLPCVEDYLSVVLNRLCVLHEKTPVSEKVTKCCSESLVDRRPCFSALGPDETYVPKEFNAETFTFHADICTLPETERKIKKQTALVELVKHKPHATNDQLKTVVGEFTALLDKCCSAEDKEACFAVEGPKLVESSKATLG

[2] = target: T1, rabbit albumin; assay: SA08b competition ELISA; remark: listed apart in the source
[3] = target: T1, rabbit albumin; assay: SA08b competition ELISA; remark: listed apart in the source
[4] = target: T2, rat albumin (rat, UniProt P02770 25-608); assay: SA08b competition ELISA
T2 construct: bought (Sigma); also called rat SA; RSA
T2 sequence (P02770 25-608 limits assumed): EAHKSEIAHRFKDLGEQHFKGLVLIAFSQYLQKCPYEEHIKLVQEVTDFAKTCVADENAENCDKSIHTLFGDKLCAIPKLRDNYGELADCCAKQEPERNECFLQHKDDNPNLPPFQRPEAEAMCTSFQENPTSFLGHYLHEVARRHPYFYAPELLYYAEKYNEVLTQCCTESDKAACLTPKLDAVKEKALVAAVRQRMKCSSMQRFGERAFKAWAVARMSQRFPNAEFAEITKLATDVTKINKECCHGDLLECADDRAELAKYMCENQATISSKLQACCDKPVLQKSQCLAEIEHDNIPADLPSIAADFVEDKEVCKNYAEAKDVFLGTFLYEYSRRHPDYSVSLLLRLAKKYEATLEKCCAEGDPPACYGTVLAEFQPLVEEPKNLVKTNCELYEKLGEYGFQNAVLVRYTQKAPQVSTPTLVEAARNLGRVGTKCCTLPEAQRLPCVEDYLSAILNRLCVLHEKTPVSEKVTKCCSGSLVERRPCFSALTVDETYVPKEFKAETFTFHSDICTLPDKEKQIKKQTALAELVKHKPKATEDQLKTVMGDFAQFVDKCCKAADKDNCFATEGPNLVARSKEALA

[5] = target: T3, mouse albumin (mouse, UniProt P07724 25-608); assay: SA08b competition ELISA
T3 construct: bought (Sigma); also called MSA; MuSA
T3 sequence (P07724 25-608 limits assumed): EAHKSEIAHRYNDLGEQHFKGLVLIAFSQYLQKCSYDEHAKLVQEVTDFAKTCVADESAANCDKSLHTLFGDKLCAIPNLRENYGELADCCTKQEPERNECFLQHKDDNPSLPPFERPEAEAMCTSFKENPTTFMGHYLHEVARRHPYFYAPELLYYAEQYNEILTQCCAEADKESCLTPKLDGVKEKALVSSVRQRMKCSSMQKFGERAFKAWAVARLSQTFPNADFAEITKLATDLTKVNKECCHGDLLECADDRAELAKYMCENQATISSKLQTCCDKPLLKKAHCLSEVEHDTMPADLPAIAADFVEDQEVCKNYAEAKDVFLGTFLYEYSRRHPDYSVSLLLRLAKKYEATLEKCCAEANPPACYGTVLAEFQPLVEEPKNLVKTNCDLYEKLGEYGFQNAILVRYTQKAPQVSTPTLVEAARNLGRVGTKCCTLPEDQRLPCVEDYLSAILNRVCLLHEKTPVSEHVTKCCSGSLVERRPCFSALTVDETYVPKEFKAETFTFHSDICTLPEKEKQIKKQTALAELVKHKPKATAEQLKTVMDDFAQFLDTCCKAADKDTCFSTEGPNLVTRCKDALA

[6] = target: T2, rat albumin; assay: phage ELISA
[7] = target: T3, mouse albumin; assay: SA08b peptide competition ELISA
[8] = target: T1, rabbit albumin; assay: SPR (BIAcore), albumin immobilized
Excerpt: (§1) Binding affinities between SA peptides and album were obtained using a BIAcore 3000 (BIAcore, Inc., Piscataway, N.J.). Albumin was captured in a CM5 chip using amine coupling at approximately 5000 resonance units (RU).
(§2) The signal from an injection passing over an uncoupled cell was subtracted from that of an immobilized cell to generate sensongrams corresponding to the amount of peptide bound as a function of time. The running buffer, PBS containing 0.05% TWEEN-20T, was used for all sample dilutions. BIAcore kinetic evaluation software (v 3.1) was used to determine the dissociation constant (Kd) from the association and dissociation rates, using a one to one binding model.

[9] = target: T4, human albumin (human, UniProt P02768 25-609); assay: SPR (BIAcore), albumin immobilized
T4 construct: bought (Sigma); also called human SA; HuSA
Excerpt: as §1, §2

[10] = target: T2, rat albumin; assay: SPR (BIAcore), albumin immobilized
Excerpt: as §1, §2

[11] = target: T1, rabbit albumin; assay: SA08b peptide competition ELISA
[12] = target: T1, rabbit albumin; assay: SA08b competition ELISA; remark: listed apart in the source
[13] = target: T2, rat albumin; assay: SA08b competition ELISA; remark: listed apart in the source
[14] = target: T3, mouse albumin; assay: SA08b competition ELISA; remark: listed apart in the source

Binder | IC50 [1] [nM] | IC50 [3] [nM] | IC50 [4] [nM] | IC50 [5] [nM] | further results
B1 | 4310 | – | – | – | fold improvement of IC50 over the core sequence (SA34 and SA19) [2]: ~6 fold
B2 | 430 | – | – | – | fold improvement of IC50 over the core sequence (SA34 and SA19) [2]: 60 fold
B3 | 1800 | – | – | – | –
B4 | 360 | – | – | – | –
B5 | – | 1690 | 258 | 6 | –
B6 | 28200 | – | – | – | –
B7 | 200 | – | – | – | –
B8 | – | – | – | – | binding result [6]: binds
B9 | 86700 | – | – | – | –
B10 | – | 63 | 68 | 10 | IC50 [7]: 12 nM; Kd [8]: 108 nM; Kd [9]: 858 nM; Kd [10]: 158 nM
B11 | – | 804 | 161 | 6 | –
B12 | 1380 | – | – | – | –
B13 | 2170 | – | – | – | –
B14 | 8540 | 8540 | 787 | 40 | –
B15 | 24500 | – | – | – | –
B16 | – | 30 | 35 | 6 | –
B17 | 2730 | – | – | – | –
B18 | 125000 | – | – | – | –
B19 | – | 1210 | 232 | 17 | –
B20 | – | – | – | – | IC50 [11]: 13 nM; IC50 [7]: 5 nM; Kd [8]: 65 nM; Kd [9]: 878 nM; Kd [10]: 150 nM
B21 | – | 86 | 77 | – | –
B22 | 270 | – | – | – | IC50 [11]: 270 nM; IC50 [7]: 7 nM; Kd [8]: 320 nM
B23 | – | 3200 | 2480 | 188 | –
B24 | 3120 | – | – | – | fold improvement of IC50 over the core sequence (SA34 and SA19) [2]: ~8.6 fold
B25 | – | 1760 | 205 | 13 | –
B26 | 400 | – | – | – | –
B27 | 260 | – | – | – | –
B28 | – | 128 | 68 | 8 | IC50 [12]: 128 nM; IC50 [13]: 68 nM; IC50 [14]: 8 nM; IC50 [11]: 130 nM; IC50 [7]: 6 nM; Kd [8]: 143 nM; Kd [10]: 229 nM
